Data as given in publication PMC3461317 (Biochemistry, 2010).
Residue numbers refer to the chain shown, from its start. Names and notes keep the numbering of the source.

B1: FlK-F36A (enzyme, Streptomyces cattleya)
chain: MKDGMRVGERFTHDFVVPPHKTVRHLYPESPEFAEAPEVFATGFMVGLMEWACVRAMAPYLEPGEGSLGTAICVTHTAATPPGLTVTVTAELRSVEGRRLSWRVSAHDGVDEIGSGTHERAVIHLEKFNAKVRQKTPAG
B2: FlK-E50Q (enzyme, Streptomyces cattleya)
chain: B1 chain with A36F, E50Q

Assays:
[1] = test system: CC(=O)SCCNC(=O)CCNC(=O)[C@H](O)C(C)(C)COP(=O)(O)OP(=O)(O)OC[C@H]1O[C@@H](n2cnc3c(N)ncnc32)[C@H](O)[C@@H]1OP(=O)(O)O; test: purified protein; assay type: biochemical, Streptantibioticus cattleyicolor; conditions: 100 mM Tris-HCl pH 7.6, 25 °C, 0.5 mM DTNB
[2] = test system: CC(C)(COP(=O)(O)OP(=O)(O)OC[C@H]1O[C@@H](n2cnc3c(N)ncnc32)[C@H](O)[C@@H]1OP(=O)(O)O)[C@@H](O)C(=O)NCCC(=O)NCCSC(=O)CF; test: purified protein; assay type: biochemical, Streptantibioticus cattleyicolor; conditions: 100 mM Tris-HCl pH 7.6, 25 °C, 0.5 mM DTNB
crystal structure = biological target: the molecule itself; test: crystal structure
SEC = biological target: the molecule itself; test: SEC

Row | Molecule | Km [1] | kcat [1] [s⁻¹] | kcat/Km [1] [M⁻¹ s⁻¹] | Km [2] | kcat [2] [s⁻¹] | kcat/Km [2] [M⁻¹ s⁻¹] | binding result (crystal structure) | stoichiometry N (SEC)
1 | FlK (Streptantibioticus cattleyicolor) | (2.1 ± 0.5) × 10^3 μM | 0.06 ± 0.01 | 30 ± 10 | 8 ± 1 µM | 390 ± 20 | 5e+07 ± 1e+07 |  | 
2 | FlK (Streptantibioticus cattleyicolor; T42C) |  |  |  | (3.6 ± 1) × 10^2 μM | 11 ± 2 | 30000 ± 10000 |  | 
3 | FlK (Streptantibioticus cattleyicolor; L26A) |  |  |  | (1.2 ± 0.2) × 10^2 μM | 6.7 ± 0.1 | 57000 ± 8000 |  | 
4 | FlK (Streptantibioticus cattleyicolor; T42S) | (6.1 ± 0.9) × 10^1 μM | 0.01 ± 0.001 | 160 ± 30 | (6 ± 2) × 10^1 μM | 19 ± 4 | 300000 ± 100000 |  | 
5 | FlK (Streptantibioticus cattleyicolor; H76A) |  |  |  | (2.0 ± 0.7) × 10^1 μM | 0.003 ± 0.0003 | 150 ± 50 |  | 
6 | FlK (Streptantibioticus cattleyicolor; F36A) |  |  |  | (7.1 ± 0.8) × 10^2 μM | 270 ± 20 | 370000 ± 50000 |  | 
7 | FlK (Streptantibioticus cattleyicolor; F33A) |  |  |  | (1.5 ± 0.4) × 10^3 μM | 27 ± 4 | 18000 ± 5000 |  | 
8 | FlK (Streptantibioticus cattleyicolor; T42A) |  |  |  | (1.1 ± 0.4) × 10^2 μM | 0.45 ± 0.09 | 4000 ± 2000 |  | 
9 | FlK (Streptantibioticus cattleyicolor; V23A) |  |  |  | (3.0 ± 1.5) × 10^2 μM | 150 ± 30 | 500000 ± 300000 |  | 
10 | B1 |  |  |  |  |  |  | binds | 
11 | B2 |  |  |  |  |  |  |  | 2
